Laboratory results published in IntAct's records for PubMed 9571151.

B1: Tyrosine-protein kinase BTK (Homo sapiens), Q06187 (parent)
chain: MAAVILESIFLKRSQQKKKTSPLNFKKRLFLLTVHKLSYYEYDFERGRRGSKKGSIDVEKITCVETVVPEKNPPPERQIPRRGEESSEMEQISIIERFPYPFQVVYDEGPLYVFSPTEELRKRWIHQLKNVIRYNSDLVQKYHPCFWIDGQYLCCSQTAKNAMGCQILENRNGSLKPGSSHRKTKKPLPPTPEEDQILKKPLPPEPAAAPVSTSELKKVVALYDYMPMNANDLQLRKGDEYFILEESNLPWWRARDKNGQEGYIPSNYVTEAEDSIEMYEWYSKHMTRSQAEQLLKQEGKEGGFIVRDSSKAGKYTVSVFAKSTGDPQGVIRHYVVCSTPQSQYYLAEKHLFSTIPELINYHQHNSAGLISRLKYPVSQQNKNAPSTAGLGYGSWEIDPKDLTFLKELGTGQFGVVKYGKWRGQYDVAIKMIKEGSMSEDEFIEEAKVMMNLSHEKLVQLYGVCTKQRPIFIITEYMANGCLLNYLREMRHRFQTQQLLEMCKDVCEAMEYLESKQFLHRDLAARNCLVNDQGVVKVSDFGLSRYVLDDEYTSSVGSKFPVRWSPPEVLMYSKFSSKSDIWAFGVLMWEIYSLGKMPYERFTNSETAEHIAQGLRLYRPHLASEKVYTIMYSCWHEKADERPTFKILLSNILDVMDEES
partner: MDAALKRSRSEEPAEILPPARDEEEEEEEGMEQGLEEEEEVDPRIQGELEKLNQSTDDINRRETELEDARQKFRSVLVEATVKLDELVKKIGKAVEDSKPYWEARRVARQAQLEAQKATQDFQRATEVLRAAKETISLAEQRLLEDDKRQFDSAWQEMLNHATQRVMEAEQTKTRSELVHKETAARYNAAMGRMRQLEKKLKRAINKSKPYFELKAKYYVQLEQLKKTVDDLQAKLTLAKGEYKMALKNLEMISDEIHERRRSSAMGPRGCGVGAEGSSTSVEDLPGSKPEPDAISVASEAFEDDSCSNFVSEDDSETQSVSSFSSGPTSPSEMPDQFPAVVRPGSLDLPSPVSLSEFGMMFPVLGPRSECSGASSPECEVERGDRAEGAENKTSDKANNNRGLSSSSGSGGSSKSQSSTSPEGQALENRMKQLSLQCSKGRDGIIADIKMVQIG

Variants of: B1
Conditions: with 3bp5_human SH3BP5, O60239

Variant | effect of a mutation on the interaction
W251L;W252L | decreasing interaction
